The values that follow come from PMC9241661.

In the assay the target is endogenous PTEN-induced kinase 1 (PINK1) (human (endogenous in Huh7)) (UniProt Q9BXM7). Description: proximity ligation.
Chain of UniProt Q9BXM7 (Q9BXM7 78-581): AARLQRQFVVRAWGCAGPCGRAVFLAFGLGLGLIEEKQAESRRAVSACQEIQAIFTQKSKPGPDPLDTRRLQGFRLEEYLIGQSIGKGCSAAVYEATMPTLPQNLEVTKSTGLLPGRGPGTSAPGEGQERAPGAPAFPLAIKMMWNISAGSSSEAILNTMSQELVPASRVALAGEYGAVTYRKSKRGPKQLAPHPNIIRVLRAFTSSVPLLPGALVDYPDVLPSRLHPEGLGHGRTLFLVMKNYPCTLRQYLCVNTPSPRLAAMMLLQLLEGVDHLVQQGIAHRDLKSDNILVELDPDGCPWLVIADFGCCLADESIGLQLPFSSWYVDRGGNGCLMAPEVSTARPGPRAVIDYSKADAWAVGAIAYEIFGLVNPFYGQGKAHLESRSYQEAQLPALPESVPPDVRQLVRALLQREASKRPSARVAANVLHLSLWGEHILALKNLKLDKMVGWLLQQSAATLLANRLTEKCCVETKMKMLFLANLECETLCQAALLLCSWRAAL

For “JEV-NS4A made in JEV-infected Huh7 cells (from UniProt P27395 2124-2249) (natural protein)”, the fluorescent dots per cell (PLA) (fluorescent dots per cell) came out at 20.
